In the RNAGym collection of RNA variant scans (doi:10.1073/pnas.2313332121):
This sample holds only a part of the variants without activity.

B1: TPR 5TU (parent)
chain: GGAUCUUCUCGAUCUAACAAAAAAGACAAAUCUGCCACAAAGCUUGAGAGCAUCUUCGGAUGCAGAGGCGGCAGCCUUCGGUGGCGCGAUAGCGCCAACGUUCUCAACUAUGACACGCAAAACGCGUGCUCCGUUGAAUGGAGUUUAUCAUG

Variants of: B1
Assay: polymerase ribozyme fitness, log enrichment relative to wild type (log ratio); higher = more active; in vitro selection for triplet polymerase activity
Outline: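 Each subunit of a heterodimeric triplet polymerase ribozyme was represented by a PCR-built, transcribed mutant library that underwent triplicate single-round in vitro selection with frozen incubation at −7 °C. Extended constructs were recovered by gel excision, streptavidin-bead capture and RT-PCR, and Illumina sequencing of input and output libraries kept genotypes with ≥10 input reads and ≥1 read per output. Fitness is the logarithm of genotype enrichment relative to wild-type enrichment, from inverse-variance-weighted replicate averages, with a logarithm base of 2.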

Variant | polymerase ribozyme fitness (log ratio)
A40U A64G C93A A98G A107C U130G | ≤ -4.2
C38A U82A G84U A120C | -1.37
C38U C57A C87A | ≤ -4.2
A40C C93U | 0.422
C38U U53A | -1.72
A40C C85A U102G G143A | ≤ -4.2
C38U A73G U101A | -0.277
A39C G80A A97U G126U U144A | ≤ -4.2
C38A G94A | -0.134
A39U G83C | -2.01
A39U C103G | -4.14
A40C U134G A142G U145A | -3.46
A39C C54G G58C G117U G124U U134C | ≤ -4.2
A40C G59C C63A G65U C87A C95U C125A G126U | ≤ -4.2
A39U U82A A106G | -1.88
C38A U109A C114U C116G | ≤ -4.2
A40C A49G U55A G80A C85U G140C | ≤ -4.2
A40C G128U G143U | ≤ -4.2
A40U G140U | -3.81
C38U C149U | -2.71
C38G C51U | -0.547
A39G C99G C108U | ≤ -4.2
C38U A52G G70U C85U G117U | -3.27
A40U U55G G58A A97G | -0.0754

Variant | polymerase ribozyme fitness (log ratio)
A39G C96U | -2.18
A40C A49U A52U A60G G83U | ≤ -4.2
A39C C93U | -3.4
C38A U56A A137G | -2.08
C38A C95G C99U A138G | ≤ -4.2
A40C U109C C116U C131U A147U | -2.36
A39U A97U A119C | -3.36
C38U G48A A60C C72G C96A C99U C114G U139G U148G | ≤ -4.2
A40C G126A G128U | -4.14
A39G U55C U56A C116U U139G U144G | -2.27
A40U C87U C105U G136U | -2.13
A40C U61A A91G A97U G141U | ≤ -4.2
C38U U53A U61A | -1.44
C38A C95A U135A | -1.76
C38U C54A C57G G143A | -4.08
A40C C99U | 0.519
A39G C96U C116U | -1.75
A39U U101G | -2.05
C38U A73U C87U C96A A122G U145A | -2.54
A39U C99A | -3.7
C38U A47C C93A C125U | -3.16
A40U C43U G70A U78G C87A A147G | ≤ -4.2
A40G G80C U90G | ≤ -4.2
C38G C85G C105U A121U G124A | -2.25

Variant | polymerase ribozyme fitness (log ratio)
C38U G42A C75G A91G C95U C105U A113U C118G | ≤ -4.2
C38U A47U C54A A73G U78A A91U C114A A115U C116U G136C U146G | ≤ -4.2
C38A U61A C96G | -2.38
C38U A73G C103A | -3.99
C38U G58A G86A C93U C96A C131A | -2.97
A40U G83C C96A G152A | -3.95
C38U G59A A60C | -1.48
A39U C54U C87A C99A G133U | ≤ -4.2
A40C C96U A150G | -1.3
A40U C105G | -0.905
A40C U56G A64U C87U G143U | ≤ -4.2
A40U U55G C96G | -0.541
A39U G62A | -2.58
A40U G92U A98C C103G A120C U134A | -3.87
A39C G48C G88U A97G U144G | ≤ -4.2
C38A U56A G128U | -3.69
A40C U109C | -3.47
A40U U55C U78G U151A | ≤ -4.2
A40U C75U C95U A98U G140A | -3.39
A40G G92U C108U G124A G128U | ≤ -4.2
C38U A52G A110C | ≤ -4.2
A40U A41U G46A C57A C87A G92U | 0.0643
A40U G68C C79U G84A C96A A138C | ≤ -4.2
C38U G70A | -2.9

Variant | polymerase ribozyme fitness (log ratio)
C38G G86U C118U | -2
A40C A52C | -1.04
C38U C85G | -3.44
C38U A47U A121U U135A A142U | -2.42
A40G U90A | ≤ -4.2
C38U U45G U55A A60U G71A | ≤ -4.2
A39C C57G A89U A97G | -3.41
A40U G59C C132U U145G | -1.94
A39G C54U C85U | -1.83
C38A G50U | -0.722
A39G A47C C72A C103G C116U G128A | ≤ -4.2
A39G C87U | -2.33
A40G U56A G59U G68A C95A U135A A150U | ≤ -4.2
C38G U45G U56A C93G C123A U127G | ≤ -4.2
C38U G59C G81C C95G C116G | -1.71
C38U C149U A150U | -1.23
A40C A41C A107U C108G G117C | ≤ -4.2
A40U C51U G83A | -0.935
A40U G92A A98U U145G A147U | -4.09
A40C U56A G59A C87A A89C G112U A119U G143A | ≤ -4.2
A39U A40C C79A U82C C96A U109G A119U G143A | ≤ -4.2
A40C A52G G80U C114G G128U G133U | ≤ -4.2
A39G A91G | -3.4
C38G C57A A115C U144G | -1.02

Variant | polymerase ribozyme fitness (log ratio)
A40C A47C A60C G71U A91C C93U | ≤ -4.2
A40G C99G | -3.79
A40C C85G A106G G117C | -1.29
C38U A39C C95U | -2.34
C38U G94A | -0.383
C38U G62C G94U | -3.3
A40G C85G A89G | ≤ -4.2
C38U U101G U135A | -0.00114
C38U A47G U53A G141C | -2.86
C38U A66G G92U C108A G136U | ≤ -4.2
A39G G50C G65C A110G A120G | ≤ -4.2
A40U | 0.097
A40C | 0.603
A40G | -1.51
A40U G141U | 0.96
A40C A137G | -1.42
C38G C75G G84C C103A | ≤ -4.2
C38G C51U C95A C99G A106U C125A U134A | ≤ -4.2
A39C C149U | -2.97
A40G C118U | -2.18
A39U U102C | -4.01
C38U U45A U55C U101G | ≤ -4.2
C38U C95G A120U G152A | -3.59
C38U C95G | -1.3

Variant | polymerase ribozyme fitness (log ratio)
C38A U90A G92A C103G G117U A138G | ≤ -4.2
A40C A60U G70A C103A A107G | ≤ -4.2
A40U C57G A91U A138U | ≤ -4.2
A40C G59A G71U G94C U127C | ≤ -4.2
C38G G50C G65U G84A C96U C99U U111G G143A | ≤ -4.2
A39G G48A U56A C76A C79U C105U | ≤ -4.2
C38G C96A C114U | -2.91
C38U C57G G58A C116A A138G | ≤ -4.2
C38G A49C C76G C93U C125A U135A G143C U144A | ≤ -4.2
A39G U55A C75G C87U A89U C99U C116U A142U | ≤ -4.2
A40U C114U A121C | -2.44
A40U C95U G124C G133U | ≤ -4.2
A40C G50U C85U | 0.316
A39G C85U U101C | -2.58
A40C A98G U146G G152C | ≤ -4.2
C38U G71A G81A G83U C93A | ≤ -4.2
A40U C79G G88U A107G C149A | ≤ -4.2
C38U A41C C132U | -1.49
C38G A66G U77G G83U A107U G128C A137U | ≤ -4.2
A39U U44G U109C | ≤ -4.2
A39G C103G U144A | ≤ -4.2
A40G A49G | -3.58
C38U C93U | -1.06
A40C U45A A66U G83A G88U A97C A122U A138U | ≤ -4.2

Variant | polymerase ribozyme fitness (log ratio)
C38U A49C A66G A138U U144C | ≤ -4.2
A40C G84A G94A C131U U139A | -4.09
A39C A91C A137G | ≤ -4.2
A39C G81A G94U A106G A110C G140U | -4.04
A40U G88A | -3.65
A39G C96U C125A | -2.58
C38U U55A | -0.159
A40G A41U | -2.41
C38U C57A G74U G83C | ≤ -4.2
C38U U82A U144A C149G | ≤ -4.2
C38U U134G | -2.53
C38G A98U A122C G141C | -2.06
C38A G70A C85G U127C | ≤ -4.2
A39G A52U U56A C75U U78G U104A U144C | ≤ -4.2
A40U G70C C79G A106G U135C U145G A150C | ≤ -4.2
A39C C87U G94U U101C A147U | ≤ -4.2
A40C U61A C76A | ≤ -4.2
A39U U55A G59U G117A A121U | -1.11
A39U U77A G81C C87U C95U A98C G126U G136C | ≤ -4.2
C38A G58A C96G C129G G143A | -2.67
C38U G50A | -2.15
A39C G94A | -2.88
A40U G92A A120C | -2.75
